Data reported in patent US11938195B2, “Upconversion nanoparticle peptide conjugates” (BP InnoMed Limited, priority 2021, dated 2024).
Where no end group is shown, it is not given here. [ ]: non-standard residue; d: D form. Ahx = NCCCCCC(=O)O

Experiments:
[1] = test system: EBV- and LMP1-negative HK1 cells; assay: MTT cytotoxicity assay, HK1 cells; type: cell-based; design: unit not given here; settings: 24 h incubation
EBV-negative HeLa cells = assay: MTT cytotoxicity assay, HeLa cells; type: cell-based, human; design: unit not given here; settings: 24 h incubation
EBV-negative MRC-5 cells = assay: MTT cytotoxicity assay, MRC-5 cells; type: cell-based, human; design: unit not given here; settings: 24 h incubation
[2] = Peptide release from nanoprobes under various pH buffers (UV-vis absorbance); type: physicochemical; settings: 24 h in buffer, 0.5 mg/mL
Excerpt: The stability and capability of cleavage of the pH linker were also studied. […] More importantly, TEM images of UCNP-P5 at different pH buffers were observed and investigated in FIG. 1, providing direct evidence on pH-responsive peptide release from UCNP. […]

C666 cells = assay: Cellular uptake by ICP-MS, C666; type: cell-based
Experimental: Subsequently, the quantitative distribution and uptake efficiency of nanoprobes in vitro in C666, HK1, HK1-LMP1 and LCL3 cells lines were monitored and investigated by evaluating the lanthanide content originating from the nanoprobes using inductively coupled plasma mass spectrometry (ICP-MS).
After co-incubation, the cell culture medium containing the nanoprobes was removed, and the exposed cells were further rinsed with 1 mL PBS three times. After that, the cells were trypsinized and re-dispersed in 1 mL cell medium. The cells were collected by centrifugation at 1500 rpm, and the cell pellet was digested in 100 μL concentrated HNO3 (69%) at room temperature for 3 h. Then, each cell pellet in centrifuge tube was filled up to 10 mL with 1% HNO3. The cellular uptake of all the nanoprobes was recorded via an Agilent 7500 series ICP-MS instrument. All ICP experiments were performed three times, and the values of Gd concentration (ppm) obtained were calculated and averaged.

C666 derived xenografts = assay: In vivo suppression assay, C666 xenograft
Excerpt: To determine the antitumor efficacy of the new nanoprobes in vivo, their therapeutic effects were investigated in C666 and HeLa derived xenografts in BALB/c nude mice. The mice were randomly divided into five groups: (1) control (PBS), (2) UCNP, (3) UCNP-P5, (4) UCNP-P6, (5) UCNP-P7. In order to recapitulate the clinical setting of drug delivery, intravenous injection (via a tail vein) was used to deliver these agents to the immunocompromised animal.
In vivo suppression assays: EBV-positive C666 and EBV-negative HeLa cells were suspended in 200 μL of serum-free RMPI 1640 and DMEM respectively. Female BALB/c nude mice (6-8 weeks) which obtained from HKU were then injected with the cells in the right flank. Intravenous injections were performed when the average tumor volumes reached ˜200 mm^3. 0.25 mg/tumor dose of UCNP and UCNP-Pn [n=5, 6 and 7 (SEQ ID NO: 5, 6, 7)] in […] PBS buffer were injected through tail vein of mice using a 24-gauge syringe. Mice injected with the same volume of PBS buffer served as control. The body weight and tumor volumes of the mice were measured three times per week; in which the latter is calculated by (L×W^2)/2, where L and W are the longer and shorter tumor dimensions respectively. Intravenous injection at the tail vein were performed twice a week and the mice were sacrificed after 33-day experimental period; the tumors were extracted and weighed. The treatment groups are unknown to the investigators for the experimental and data analysis processes. The animal experiments conducted were approved by the Department of Health of the HKSAR Government. All animal procedures are within the Guidelines for Care and Use of Laboratory Animals of HKBU and approved by the Animal Ethics Committee of HKBU.
Hematoxylin and eosin (H&E) staining: In general, the transplanted C666 and HeLa derived tumor tissues were collected and fixed with formalin, followed by embedding in paraffin. The histologic sections were then stained with hematoxylin and eosin. Other major organ tissues (heart, liver, spleen, lung, kidney, brain) were conducted in the same procedures.

C666-tumor = settings: 12.5 mg/kg i.v.; 3-36 h after injection; 980 nm
Experimental: (§1) In vivo upconversion luminescence imaging was performed using UCNP-P5 under 980 nm excitation (laser power: 3 W). C666-tumor-bearing and HeLa-tumor-bearing nude mice were injected with UCNP-P5 through the tail vein.
(§2) In vivo upconversion luminescence imaging: C666 and HeLa cells (10^6 cells) were inoculated subcutaneously in BALB/c female nude mice (6 weeks). When the tumors reached 0.2-0.3 cm in diameter, the C666-tumor-bearing and HeLa-tumor-bearing mice were anesthetized and injected intravenously with UCNP-P5 (150 μl, 12.5 mg/kg per mouse). The in vivo upconversion luminescence images were recorded at different time points (3 h, 6 h, 12 h, 24 h, 36 h).

HeLa derived xenograft = settings: 12.5 mg/kg i.v.; 3-36 h after injection; 980 nm
Experimental: as §1, §2

[3] = C666 tumor-bearing mice, 33-day experimental period

UCNP-P5: UCNP is NaGdF4:Yb^3+, Er^3+@NaGdF4 and plurality of polypeptides is Ahx-YFMVFGGRrRKGGFWLY (SEQ ID NO: 5), pH-sensitive imine linker ([Ahx]YFMVFGGR[dR]RKGGFWLY; also: conjugated to UCNP NaGdF4:Yb3+,Er3+@NaGdF4 via pH-sensitive imine linker)
IC50 in HK1 [1]: 1027
IC50 in HeLa (EBV-negative HeLa cells): 1086
IC50 in MRC-5 (EBV-negative MRC-5 cells): 1280
Peptide release rate ([2]; pH 5.0): 84.6%
Peptide release rate ([2]; pH 5.5): 56.1%
Peptide release rate ([2]; pH 6.0): 34.8%
Peptide release rate ([2]; pH 6.5): 20.9%
Peptide release rate ([2]; pH 7.0): 6.1%
Peptide release rate ([2]; pH 7.4): 0%
Cellular uptake (Gd amount by ICP-MS) (C666 cells; 50 μg/mL): largest amount of cellular uptake
Gd amount relative to UCNP-P4 (C666 cells; 24 h incubation): over twice
Effect on average tumor size (C666 derived xenografts; 12.5 mg/kg, intravenous (tail vein), twice a week, 33 days): significantly reduce the average tumor size
Tumor uptake relative to UCNP-P6 and UCNP-P7 (ICP-MS biodistribution) (C666 derived xenografts; C666 tumor, Gd ions): ~3 fold
Body weight (C666 derived xenografts; [3]): slightly increased
Various organ weights (C666 derived xenografts; [3]): slightly increased
Upconversion luminescence signal from the tumor site (C666-tumor): persisted even 24 h after the injection
Upconversion luminescence signal from the tumor site (HeLa derived xenograft): only observed at 3 h after the injection
